The results in this text go back to patent US20130131322A1.

The target in this test is EGFR on A431 cells (human) (UniProt P00533). The test is described as follows: cell-based or functional assay.

The substance “anti-EGFR antibody (clone 225: the original antibody of cetuximab, Calbiochem)” came in with an inhibition of EGFR phosphorylation in A431 cells of 40%.
